Patent US20210403565A1 (BIOATLA, published 2021)
Where a chain is given by its changes, count along the chain named. One block for each binder: values may come before it.

How the values were obtained:
[1] = biological target: T1, cynomolgus CTLA4 expressed on the cell surface of CHO cells (cynomolgus, UniProt G7PL88 36-223); experiment: FACS, CHO cells expressing cynomolgus CTLA4 (CHO-cynoCTLA-4), pH 7.4, MFI; curve still rising at log 5 (about 600000 against about 1900000 for Ipilimumab), no plateau; no unit in the table, unit from the axis Log Antibodies [ng/ml]
T1 construct: whole, on cells; also called CHO-cynoCTLA4
T1 sequence: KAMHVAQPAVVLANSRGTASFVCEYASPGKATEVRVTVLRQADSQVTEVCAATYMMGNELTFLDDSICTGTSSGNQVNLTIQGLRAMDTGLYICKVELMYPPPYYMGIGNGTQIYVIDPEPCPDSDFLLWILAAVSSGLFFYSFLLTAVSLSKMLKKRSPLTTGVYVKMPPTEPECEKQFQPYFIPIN
Protocol: (§1) The amount of antibodies bound on the cells was quantified using anti-human IgG antibody conjugated to fluorophores. EC₅₀ values at pH 6.0 and 7.4 for binding to cells were calculated using the nonlinear fit (variable slope, four parameters) model built into GraphPad Prism software (version 7.03). The expression levels of human CTLA4 or cynomolgus CTLA4 on the surface of the CHO cells were determined using a BD QuantiBRITE™ PE kit.
(§2) At least two independent duplicate FACS experiments were performed for each antibody using each of the cell lines. The binding activities at different concentrations of the antibodies are plotted in these figures.

[2] = biological target: T1, cynomolgus CTLA4 expressed on the cell …; experiment: FACS saturation, CHO-cynoCTLA-4, pH 7.4, MFI, titration up to about log 6.5; reaches about 330000 against about 700000 for Ipi Analogue; no unit in the table, unit from the axis Log Antibodies [ng/ml]
Protocol: as §1
Finally, saturations of the antibodies on the CHO cells expressing human or cynomolgus CTLA4 at pH 7.4 were also measured by FACS (FIGS. 8A-8B).

[3] = biological target: T2, recombinant human CTLA4 extracellular domain (human, UniProt P16410 36-161); experiment: ELISA, wells coated with human CTLA4, assay pH 7.4; lot 6972 in His buffer, T0; unit from the axis Log[ng/mL]
T2 construct: extracellular domain; also called huCTLA-4
T2 sequence (looked up): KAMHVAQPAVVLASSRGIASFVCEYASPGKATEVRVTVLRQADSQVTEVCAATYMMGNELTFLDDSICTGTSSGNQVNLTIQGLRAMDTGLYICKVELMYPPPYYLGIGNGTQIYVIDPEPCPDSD
Protocol: (§3) Both ELISA and FACS analysis were used to measure the binding activity. […] The amount of bound antibodies was quantified using anti-human IgG antibody conjugated to HRP. The absorbance at 450 nm in each measurement was proportional to the amount of antibodies bound. […] EC50 value (in ng/mL) for binding to human CTLA4 was determined by absorbance at 450 nm against antibody concentration with Prism variable slope of four-parameter dose-response curve, which was calculated using the nonlinear fit (variable slope, four parameters) model built into GraphPad Prism software (version 7.03). The buffers tested included His buffer (His), Tris buffer (Tris), Glutamine buffer (Glu) and no buffer.

[4] = biological target: T3, human CTLA4 expressed on the cell surface of CHO cells (human, UniProt P16410 36-223); experiment: FACS, cells expressing human CTLA4, assay pH 6.0, MFI; lot 6972 in Tris buffer, T2W; unit from the axis Log[ng/mL]
T3 construct: whole, on cells; also called CHO-huCTLA4; huCTLA4
T3 sequence (looked up): T1 sequence with N14S, T18I, M106L
Protocol: (§4) The amount of bound antibodies was quantified using anti-human IgG antibody conjugated to fluorophores. The MFI in each reaction was proportional to the amount of antibodies bound. The EC₅₀ value (in ng/mL) for binding to human CTLA4 on cells was determined by MFI of the singlets population against antibody concentration with a Prism variable slope of four-parameter dose-response curve, which was calculated using the nonlinear fit (variable slope, four parameters) model built into GraphPad Prism software (version 7.03).

[5] = biological target: T2, recombinant human CTLA4 extracellular …; experiment: ELISA, wells coated with human CTLA4, assay pH 7.4; lot 6978 in His buffer, T0; curve still rising at log 3 (OD450 below 0.2), no plateau; unit from the axis Log[ng/mL]
Protocol: as §3

[6] = biological target: T3, human CTLA4 expressed on the cell …; experiment: FACS, cells expressing human CTLA4, assay pH 7.4, MFI; lot 6978 in Glu buffer, T2W; unit from the axis Log[ng/mL]
Protocol: as §4

[7] = biological target: T3, human CTLA4 expressed on the cell …; experiment: FACS, cells expressing human CTLA4, assay pH 6.0, MFI; lot 6978 in Tris buffer, T0; unit from the axis Log[ng/mL]
Protocol: as §4

[8] = biological target: T1, cynomolgus CTLA4 expressed on the cell …; experiment: FACS, CHO cells expressing cynomolgus CTLA4 (CHO-cynoCTLA-4), pH 7.4, MFI; curve near baseline up to log 4, about 150000 at log 5, no plateau; no unit in the table, unit from the axis Log Antibodies [ng/ml]
Protocol: as §1, §2

[9] = biological target: T3, human CTLA4 expressed on the cell …; experiment: FACS, cells expressing human CTLA4, assay pH 6.0, MFI; lot 6978 in Glu buffer, T2W; unit from the axis Log[ng/mL]
Protocol: as §4

[10] = biological target: T2, recombinant human CTLA4 extracellular …; experiment: ELISA, wells coated with human CTLA4, assay pH 7.4; lot 6978 without test buffer; curve still rising at log 3 (OD450 about 0.2), no plateau; same column repeated in FIG. 9E and FIG. 9F; unit from the axis Log[ng/mL]
Protocol: as §3

- EC50 [1]: 8.28 µg/mL
- EC50 [2]: 13 µg/mL
- EC50 [3]: 0.0544 µg/mL
- EC50 [4]: 0.352 µg/mL
B1: BA-087-05-19 (antibody, V domains shown)
VH: EVQLVESGGGLVQPGGSLRLSCAASGFTFSHYTMHWVRQAPGKGLEWVSFISYDGNNKYYADSVKGRFTISRDNSKNTLYLQMNSLRAEDTAVYYCARTGWLGPFDYWGQGTLVTVSS
VL: AIQLTQSPSSLSASVGDRVTITCRASQYVGSSYLAWYLQKPGQSPQLLIYGAFSRATGIPARFSGSGSGTEFTLTISSLQSEDFAVYYCQQDGSSPWTFGQGTKVEIK
notes: Detected with anti-human IgG and a molecular weight of 146 kDa was used in SPR, so it was tested as a whole IgG; also called BA-087-05-019; BA-087-05-19 (# 6972)

- EC50 [5]: 0.491 µg/mL
- EC50 [6]: 1.41 µg/mL
- EC50 [7]: 0.152 µg/mL
- EC50 [8]: 83.9 µg/mL
- EC50 [9]: 0.176 µg/mL
- EC50 [10]: 1.14 µg/mL
B2: BA-087-08-32 (antibody, V domains shown)
VH: EVQLVQSGAEVKKPGATVKISCKVSGFTFSHYTMHWIRQSPSRGLEWLGFISYDGNYKYYADSVKGRFTISRDNAKNSLYLQMNSLRAEDTAVYYCARTGWLGPFDYWGQGTLVTVSS
VL: EIVMTQSPATLSVSPGERATLSCRASQSVGSSYLAWYQQKPGKAPKLLIYGAFSRATGVPSRFSGSGSGTDFTLTISSLQPEDFATYYCQQDGSSPWTFGQGTKVEIK
notes: Detected with anti-human IgG and a molecular weight of 146 kDa was used in SPR, so it was tested as a whole IgG; also called BA-087-08-032; BA-087-08-32 (# 6978)
